Results: article PMC2891831, “Insight into the Mechanisms of Adenovirus Capsid Disassembly from Studies of Defensin Neutralization” (PLoS Pathogens, 2010)

Legend:
[1] = target: T1, CAR receptor (human (endogenous in A549), UniProt P78310 20-365); assay: flow cytometry on cells; as a6, but the Alexa Fluor 488-labelled Ad5.eGFP was pre-incubated with 20 µM HD5 for 45 min on ice; details: one partner purified
T1 construct: source: endogenous, on A549 cells
T1 sequence: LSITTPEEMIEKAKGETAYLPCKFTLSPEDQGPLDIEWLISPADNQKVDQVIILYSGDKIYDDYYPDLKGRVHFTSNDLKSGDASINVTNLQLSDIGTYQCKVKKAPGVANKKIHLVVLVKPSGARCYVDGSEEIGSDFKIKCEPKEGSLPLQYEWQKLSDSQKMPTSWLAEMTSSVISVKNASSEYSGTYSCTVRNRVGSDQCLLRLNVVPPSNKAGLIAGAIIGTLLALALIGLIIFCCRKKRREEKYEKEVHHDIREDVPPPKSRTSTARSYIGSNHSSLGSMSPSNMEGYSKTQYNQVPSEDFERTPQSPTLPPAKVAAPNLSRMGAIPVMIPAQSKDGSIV

[2] = target: T1, CAR receptor; assay: flow cytometry on cells; A549 cells in PBS + 0.2% sodium azide incubated with or without 200 nM 5FK or 16FK, 45 min on ice (100 nM in the legend), then combined with Alexa Fluor 488-labelled Ad5.eGFP without defensin (virus pre-incubated with 20 µM HD5-Abu was equivalent to virus alone), 45 min on ice; details: one partner purified

B1: recombinant HAdV-5 fiber knob (domain or fragment)
chain: GAITVGNKNNDKLTLWTTPAPSPNCRLNAEKDAKLTLVLTKCGSQILATVSVLAVKGSLAPISGTVQSAHLIIRFDENGVLLNNSFLDPEYWNFRNGDLTEGTAYTNAVGFMPNLSAYPKSHGKTAKSNIVSQVYLNGDKTKPVTLTITLNGTQETGDTTPSAYSMSFSWDWSGHNYINEIFATSSYTFSYIAQE
notes: fiber knob, residues 387-581 of the HAdV-5 fiber; also called 5FK
B1 was tested, and the “fold reduction of HAdV-5 binding to cells with 5FK compared to 16FK, virus pre-incubated with HD5” value [1] was 1.6 fold and the “fold reduction of HAdV-5 binding to cells with 5FK compared to 16FK” value [2] was 5.2 fold.
